Changes are numbered by the printed parent chain. Numbers in names are those of the source.
B1: Variant A2M, bait region SEQ ID NO 85 (other)
chain: SVSGKPQYMVLVPSLLHTETTEKGCVLLSYLNETVTVSASLESVRGNRSLFTDLEAENDVLHCVAFAVPKSSSNEEVMFLTVQVKGPTQEFKKRTTVMVKNEDSLVFVQTDKSIYKPGQTVKFRVVSMDENFHPLNELIPLVYIQDPKGNRIAQWQSFQLEGGLKQFSFPLSSEPFQGSYKVVVQKKSGGRTEHPFTVEEFVLPKFEVQVTVPKIITILEEEMNVSVCGLYTYGKPVPGHVTVSICRKYSDASDCHGEDSQAFCEKFSGQLNSHGCFYQQVKTKVFQLKRKEYEMKLHTEAQIQEEGTVVELTGRQSSEITRTITKLSFVKVDSHFRQGIPFFGQVRLVDGKGVPIPNKVIFIRGNEANYYSNATTDEHGLVQFSINTTNVMGTSLTVRVNYKDRSPCYGYQWVSEEHEEAHHTAYLVFSPSKSFVHLEPMSHELPCGHTQTVQAHYILNGGTLLGLKKLSFYYLIMAKGGIVRTGTHGLLVKQEDMKGHFSISIPVKSDIAPVARLLIYAVLPTGDVIGDSAKYDVENCLANKVDLSFSPSQSLPASHAHLRVTAAPQSVCALRAVDQSVLLMKPDAELSASSVYNLLPEKDLTGFPGPLNDQDDEDCINRHNVYINGITYTPVSSTNEKDMYSFLEDMGLKAFTNSKIRKPKMCPQLEQYEMHGPEGLRVGIPENFFGVSELEGRGSKEEEGLGSKLRKYFPETWIWDLVVVNSAGVAEVGVTVPDTITEWKAGAFCLSEDAGLGISSTASLRAFQPFFVELTMPYSVIRGEAFTLKATVLNYLPKCIRVSVQLEASPAFLAVPVEKEQAPHCICANGRQTVSWAVTPKSLGNVNFTVSAEALESQELCGTEVPSVPEHGRKDTVIKPLLVEPEGLEKETTFNSLLCPSGGEVSEELSLKLPPNVVEESARASVSVLGDILGSAMQNTQNLLQMPYGCGEQNMVLFAPNIYVLDYLNETQQLTPEIKSKAIGYLNTGYQRQLNYKHYDGSYSTFGERYGRNQGNTWLTAFVLKTFAQARAYIFIDEAHITQALIWLSQRQKDNGCFRSSGSLLNNAIKGGVEDEVTLSAYITIALLEIPLTVTHPVVRNALFCLESAWKTAQEGDHGSHVYTKALLAYAFALAGNQDKRKEVLKSLNEEAVKKDNSVHWERPQKPKAPVGHFYEPQAPSAEVEMTSYVLLAYLTAQPAPTSEDLTSATNIVKWITKQQNAQGGFSSTQDTVVALHALSKYGAATFTRTGKAAQVTIQSSGTFSSKFQVDNNNRLLLQQVSLPELPGEYSMKVTGEGCVYLQTSLKYNILPEKEEFPFALGVQTLPQTCDEPKAHTSFQISLSVSYTGSRSASNMAIVDVKMVSGFIPLKPTVKMLERSNHVSRTEVSSNHVLIYLDKVSNQTLSLFFTVLQDVPVRDLKPAIVKVYDYYETDEFAIAEYNAPCSKDLGNADYKDDDDKGASHHHHHH
B2: Variant A2M, bait region SEQ ID NO 88 (other)
chain: SVSGKPQYMVLVPSLLHTETTEKGCVLLSYLNETVTVSASLESVRGNRSLFTDLEAENDVLHCVAFAVPKSSSNEEVMFLTVQVKGPTQEFKKRTTVMVKNEDSLVFVQTDKSIYKPGQTVKFRVVSMDENFHPLNELIPLVYIQDPKGNRIAQWQSFQLEGGLKQFSFPLSSEPFQGSYKVVVQKKSGGRTEHPFTVEEFVLPKFEVQVTVPKIITILEEEMNVSVCGLYTYGKPVPGHVTVSICRKYSDASDCHGEDSQAFCEKFSGQLNSHGCFYQQVKTKVFQLKRKEYEMKLHTEAQIQEEGTVVELTGRQSSEITRTITKLSFVKVDSHFRQGIPFFGQVRLVDGKGVPIPNKVIFIRGNEANYYSNATTDEHGLVQFSINTTNVMGTSLTVRVNYKDRSPCYGYQWVSEEHEEAHHTAYLVFSPSKSFVHLEPMSHELPCGHTQTVQAHYILNGGTLLGLKKLSFYYLIMAKGGIVRTGTHGLLVKQEDMKGHFSISIPVKSDIAPVARLLIYAVLPTGDVIGDSAKYDVENCLANKVDLSFSPSQSLPASHAHLRVTAAPQSVCALRAVDQSVLLMKPDAELSASSVYNLLPEKDLTGFPGPLNDQDDEDCINRHNVYINGITYTPVSSTNEKDMYSFLEDMGLKAFTNSKIRKPKMCPQLEQYEMHGPEGLRVGIPENFFGVFYESDVMGRGHARLVHVEEPHTKLLRKYFPETWIWDLVVVNSAGVAEVGVTVPDTITEWKAGAFCLSEDAGLGISSTASLRAFQPFFVELTMPYSVIRGEAFTLKATVLNYLPKCIRVSVQLEASPAFLAVPVEKEQAPHCICANGRQTVSWAVTPKSLGNVNFTVSAEALESQELCGTEVPSVPEHGRKDTVIKPLLVEPEGLEKETTFNSLLCPSGGEVSEELSLKLPPNVVEESARASVSVLGDILGSAMQNTQNLLQMPYGCGEQNMVLFAPNIYVLDYLNETQQLTPEIKSKAIGYLNTGYQRQLNYKHYDGSYSTFGERYGRNQGNTWLTAFVLKTFAQARAYIFIDEAHITQALIWLSQRQKDNGCFRSSGSLLNNAIKGGVEDEVTLSAYITIALLEIPLTVTHPVVRNALFCLESAWKTAQEGDHGSHVYTKALLAYAFALAGNQDKRKEVLKSLNEEAVKKDNSVHWERPQKPKAPVGHFYEPQAPSAEVEMTSYVLLAYLTAQPAPTSEDLTSATNIVKWITKQQNAQGGFSSTQDTVVALHALSKYGAATFTRTGKAAQVTIQSSGTFSSKFQVDNNNRLLLQQVSLPELPGEYSMKVTGEGCVYLQTSLKYNILPEKEEFPFALGVQTLPQTCDEPKAHTSFQISLSVSYTGSRSASNMAIVDVKMVSGFIPLKPTVKMLERSNHVSRTEVSSNHVLIYLDKVSNQTLSLFFTVLQDVPVRDLKPAIVKVYDYYETDEFAIAEYNAPCSKDLGNADYKDDDDKGASHHHHHH
B3: Variant A2M, bait region SEQ ID NO 94 (other)
chain: B2 chain with I684T, P685E, E686G, N687E, F688A, F689R, V691S
B4: Variant A2M, bait region SEQ ID NO 93 (other)
chain: B2 chain with I684V, P685S, E686Q, N687E, F688L, F689G, G690Q, V691R
B5: Variant A2M, bait region SEQ ID NO 95 (other)
chain: B2 chain with I684T, P685S, N687D, F688L, F689V, G690V, V691Q
B6: Variant A2M, bait region SEQ ID NO 89 (other)
chain: B2 chain with I684K, P685E, N687E, F688G, F689L, V691S
B7: Variant A2M, bait region SEQ ID NO 97 (other)
chain: B2 chain with I684G, P685E, N687G, F688V, F689E, G690E, V691G
B8: Variant A2M, bait region SEQ ID NO 86 (other)
chain: SVSGKPQYMVLVPSLLHTETTEKGCVLLSYLNETVTVSASLESVRGNRSLFTDLEAENDVLHCVAFAVPKSSSNEEVMFLTVQVKGPTQEFKKRTTVMVKNEDSLVFVQTDKSIYKPGQTVKFRVVSMDENFHPLNELIPLVYIQDPKGNRIAQWQSFQLEGGLKQFSFPLSSEPFQGSYKVVVQKKSGGRTEHPFTVEEFVLPKFEVQVTVPKIITILEEEMNVSVCGLYTYGKPVPGHVTVSICRKYSDASDCHGEDSQAFCEKFSGQLNSHGCFYQQVKTKVFQLKRKEYEMKLHTEAQIQEEGTVVELTGRQSSEITRTITKLSFVKVDSHFRQGIPFFGQVRLVDGKGVPIPNKVIFIRGNEANYYSNATTDEHGLVQFSINTTNVMGTSLTVRVNYKDRSPCYGYQWVSEEHEEAHHTAYLVFSPSKSFVHLEPMSHELPCGHTQTVQAHYILNGGTLLGLKKLSFYYLIMAKGGIVRTGTHGLLVKQEDMKGHFSISIPVKSDIAPVARLLIYAVLPTGDVIGDSAKYDVENCLANKVDLSFSPSQSLPASHAHLRVTAAPQSVCALRAVDQSVLLMKPDAELSASSVYNLLPEKDLTGFPGPLNDQDDEDCINRHNVYINGITYTPVSSTNEKDMYSFLEDMGLKAFTNSKIRKPKMCPQLEQYEMHGPEGLRVGSELEGRGSKEEEGLGSIPENFFGVKLRKYFPETWIWDLVVVNSAGVAEVGVTVPDTITEWKAGAFCLSEDAGLGISSTASLRAFQPFFVELTMPYSVIRGEAFTLKATVLNYLPKCIRVSVQLEASPAFLAVPVEKEQAPHCICANGRQTVSWAVTPKSLGNVNFTVSAEALESQELCGTEVPSVPEHGRKDTVIKPLLVEPEGLEKETTFNSLLCPSGGEVSEELSLKLPPNVVEESARASVSVLGDILGSAMQNTQNLLQMPYGCGEQNMVLFAPNIYVLDYLNETQQLTPEIKSKAIGYLNTGYQRQLNYKHYDGSYSTFGERYGRNQGNTWLTAFVLKTFAQARAYIFIDEAHITQALIWLSQRQKDNGCFRSSGSLLNNAIKGGVEDEVTLSAYITIALLEIPLTVTHPVVRNALFCLESAWKTAQEGDHGSHVYTKALLAYAFALAGNQDKRKEVLKSLNEEAVKKDNSVHWERPQKPKAPVGHFYEPQAPSAEVEMTSYVLLAYLTAQPAPTSEDLTSATNIVKWITKQQNAQGGFSSTQDTVVALHALSKYGAATFTRTGKAAQVTIQSSGTFSSKFQVDNNNRLLLQQVSLPELPGEYSMKVTGEGCVYLQTSLKYNILPEKEEFPFALGVQTLPQTCDEPKAHTSFQISLSVSYTGSRSASNMAIVDVKMVSGFIPLKPTVKMLERSNHVSRTEVSSNHVLIYLDKVSNQTLSLFFTVLQDVPVRDLKPAIVKVYDYYETDEFAIAEYNAPCSKDLGNADYKDDDDKGASHHHHHH

Target: MMP13 (human, UniProt P45452 104-471, limits assumed)
Assay: cell-based or functional assay

Row | Binder | Protease Inhibition (% of WT)
1 | B1 | 170 % of WT
2 | B2 | 156 % of WT
3 | B3 | 173 % of WT
4 | B4 | 119 % of WT
5 | B5 | 79 % of WT
6 | B6 | 1 % of WT
7 | B7 | 116 % of WT
8 | B8 | 120 % of WT

Target: T1, ADAMTS5 (human, UniProt Q9UNA0 262-622, limits assumed)
T1 sequence (looked up): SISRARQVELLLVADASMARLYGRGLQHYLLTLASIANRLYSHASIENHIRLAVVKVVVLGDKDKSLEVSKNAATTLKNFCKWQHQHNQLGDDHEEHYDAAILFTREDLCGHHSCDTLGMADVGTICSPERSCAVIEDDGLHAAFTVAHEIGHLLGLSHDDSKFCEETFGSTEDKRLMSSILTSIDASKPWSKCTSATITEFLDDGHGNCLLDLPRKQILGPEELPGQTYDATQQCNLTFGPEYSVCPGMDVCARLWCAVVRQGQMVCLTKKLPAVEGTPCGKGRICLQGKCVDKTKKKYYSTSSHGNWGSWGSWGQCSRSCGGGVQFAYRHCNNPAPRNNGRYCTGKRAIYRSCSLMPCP
Assay: cell-based or functional assay

Row | Binder | Protease Inhibition (% of WT)
9 | B1 | 174 % of WT
10 | B2 | 108 % of WT
11 | B3 | 395 % of WT
12 | B4 | 66 % of WT
13 | B5 | 272 % of WT
14 | B6 | 485 % of WT
15 | B7 | 128 % of WT
16 | B8 | 74 % of WT

Target: T2, ADAMTS4 (human, UniProt O75173 213-685, limits assumed)
T2 sequence (looked up): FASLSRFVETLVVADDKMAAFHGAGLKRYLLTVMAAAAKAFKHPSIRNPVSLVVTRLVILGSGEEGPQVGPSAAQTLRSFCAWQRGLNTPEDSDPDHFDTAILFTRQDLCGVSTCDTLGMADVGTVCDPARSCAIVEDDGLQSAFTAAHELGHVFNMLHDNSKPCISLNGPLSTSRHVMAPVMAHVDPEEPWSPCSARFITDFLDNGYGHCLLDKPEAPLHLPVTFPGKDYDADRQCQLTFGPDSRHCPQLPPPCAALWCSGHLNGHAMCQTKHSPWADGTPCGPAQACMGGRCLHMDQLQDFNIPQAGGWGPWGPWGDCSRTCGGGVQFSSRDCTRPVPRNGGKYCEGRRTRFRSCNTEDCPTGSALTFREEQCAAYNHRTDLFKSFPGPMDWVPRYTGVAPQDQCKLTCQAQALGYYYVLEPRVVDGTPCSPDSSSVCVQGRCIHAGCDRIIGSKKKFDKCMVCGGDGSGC
Assay: cell-based or functional assay

Row | Binder | Protease Inhibition (% of WT)
17 | B1 | 78 % of WT
18 | B2 | 68 % of WT
19 | B3 | 121 % of WT
20 | B4 | 27 % of WT
21 | B5 | 153 % of WT
22 | B6 | 101 % of WT
23 | B7 | 131 % of WT
24 | B8 | 91 % of WT

Reference: patent US20230250154A1 (CYTONICS, published 2023)
